Experimental data published in the supplement of paper PMC10567573.
± gives the standard deviation.

Experiment: protein stability index of a GFP-peptide fusion (GPS, HEK-293T) (PSI 1-6); higher = more stable
[1] = treatment: DMSO, c terminus: a fixed tail appended
[2] = treatment: MLN4924 1 uM, 8 h, c terminus: a fixed tail appended
[3] = treatment: DMSO, c terminus: native
[4] = treatment: MLN4924 1 uM, 8 h, c terminus: native
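Note: 24-mer peptide tiles fused after GFP, lentivirally expressed, FACS-sorted into six equal bins by GFP/DsRed ratio, decoded by Illumina sequencing, PSI is the read-weighted mean bin number.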

| Sequence | protein stability index [1] | protein stability index [2] | protein stability index [3] | protein stability index [4] |
| --- | --- | --- | --- | --- |
| WYWHGDVNSNKVVMSGVKCSGTEL [LOXL2] | 2.68 ± 0.53 | 2.75 ± 0.28 |  |  |
| VLPKPKVISCLEQGEEPWVQVSPE [ZNF75A] | 4.21 ± 0.23 | 4.07 ± 0.3 |  |  |
| QQKWTKPARAGSEVEWTEDLALDL [C2CD2L] | 4.37 ± 0.27 | 4.48 ± 0.28 |  |  |
| RDTRDYAPPPRDYTYRDYGHSSSR [RBMX] | 4.01 ± 0.14 | 3.65 ± 0.77 |  |  |
| LAMNYLDRFLAGVPTPKSHLQLLG [CCND2] | 2.94 ± 0.61 | 2.65 ± 0.76 |  |  |
| GRRLKSPQAPDPEEEENRDSQQPG [FANCE] | 5.44 ± 0.25 | 5.67 ± 0.27 |  |  |
| GADKEILTTKGEMPVQLTSRREIR [ANKRD40] | 4.83 ± 0.13 | 4.95 ± 0.19 |  |  |
| VATWAIFVHRVGQPSIGGKLSPL [CTBP1-DT] |  |  | 3.12 ± 0.21 | 2.92 ± 0.47 |
| RLDFFEKPDYEYLRTLFTDLFEKK [CSNK1G1] | 2.54 ± 0.38 | 2.77 ± 0.41 |  |  |
| ILREELQKQRLREILEQQQQERND [ZNF277] | 4.4 ± 0.51 | 4.32 ± 0.33 |  |  |
| FEQLPDDVAISANIADIEEKRGFT [NCF4] | 5.03 ± 0.33 | 5.05 ± 0.21 |  |  |
| SRDEAALPELLLGALPVGSNLTSN [RETREG3] | 4.19 ± 0.23 | 4.43 ± 0.28 |  |  |
| AEVVKIRDSFSNQNTETKDTKSR [DLC1] |  |  | 2.89 ± 0.56 | 3.47 ± 0.74 |
| SVLDDLLYAVGGHDGSSYLNSVER [KLHL20] | 2.71 ± 0.46 | 3.03 ± 0.56 |  |  |
| QICGTHRQTKKMFCDMDKSLLCLL [TRIM43] | 2.77 ± 1 | 2.18 ± 0.36 |  |  |
| MASVRIREAKEGDCGDILRLIREL [SAT2] | 3.01 ± 0.17 | 3.23 ± 0.37 |  |  |
| MDDQGCPRCKTTKYRNPSLKLMVN [MNAT1] | 2.8 ± 0.16 | 3.21 ± 0.22 |  |  |
| PMMKLKRHFVAQKYKKQIDHMYH [ACSBG2] |  |  | 2.7 ± 0.32 | 2.75 ± 0.32 |
| QTWNNSTWSNQTQNIQSWSNHSWN [NANOGP8] | 2.36 ± 0.24 | 2.46 ± 0.28 |  |  |
| AERLEVSVDGLTLSPDPEERPGAE [ACBD3] | 5.29 ± 0.45 | 5.56 ± 0.3 |  |  |
| PVTQIGFEAPPLQGQAAAPASGSG [TRIM55] | 5.14 ± 0.42 | 5.22 ± 0.14 |  |  |
| YSHEVSLTADSRKSHLIFPQPNYA [PCDHGA10] | 2.79 ± 0.48 | 2.74 ± 0.29 |  |  |

| Sequence | protein stability index [1] | protein stability index [2] | protein stability index [3] | protein stability index [4] |
| --- | --- | --- | --- | --- |
| ERPYGCDECEKAYFYMSCLVKHKR [ZNF649] | 2.48 ± 0.16 | 2.81 ± 0.28 |  |  |
| EALNERHSIINALKAKLQMTEAAL [LRRC45] | 2.66 ± 0.2 | 2.91 ± 0.3 |  |  |
| MELLTNNLKFITDPFVCRLRHLSP [OR4A15] | 2.17 ± 0.22 | 2.58 ± 0.38 |  |  |
| PPKKPSNWRRKHEEFIATIRAAKG [ZC2HC1A] | 3.65 ± 0.15 | 3.82 ± 0.14 |  |  |
| EELVARSETHAAGHSQEKTHSREK [CHGB] | 5.66 ± 0.28 | 5.47 ± 0.5 |  |  |
| QIQEFKEAFTLMDQNRDGFIDKED [MYL5] | 5.12 ± 0.26 | 5.19 ± 0.32 |  |  |
| QPGLSFLNLGSGTGYLSTMVGLIL [PCMTD1] | 2.15 ± 0.29 | 2.2 ± 0.31 |  |  |
| PGGPGAMTESLEASEFLEQSMSQT [RSPH3] | 5.27 ± 0.28 | 5.16 ± 0.17 |  |  |
| HHDKVQSLCYLQLTRQLVSCSSDG [WDFY1] | 2.2 ± 0.36 | 2.06 ± 0.28 |  |  |
| CWLNAFAEMLRFGDRMFYRDWWNS [SOAT2] | 2.47 ± 0.4 | 2.91 ± 0.16 |  |  |
| VIMWDIGGRKGTAIELQGHNDRVQ [WDFY2] | 2.57 ± 0.64 | 2.45 ± 0.17 |  |  |
| AHRIAAQTLLGTAKMLLHEGQHPA [PYCR3] | 2.97 ± 0.31 | 2.95 ± 0.42 |  |  |
| MTQLSSTLARCAKDILGFAVMFFI [PKD2L1] | 2.39 ± 0.37 | 2.28 ± 0.42 |  |  |
| GQLYAMELQGFWMDIGQPKDFLTG [GMPPB] | 2.01 ± 0.47 | 1.92 ± 0.13 |  |  |
| GKDVATQILEGELFDFDLEVKPVL [RSPH3] | 3.79 ± 0.087 | 3.81 ± 0.46 |  |  |
| QDDLTVVLNEEGICTQKCALNWTD [VPS39] | 4.04 ± 0.49 | 4 ± 0.67 |  |  |
| DHGCEQLCLNTEDSFVCQCSEGFL [MATN2] | 4.18 ± 0.21 | 4.06 ± 0.3 |  |  |
| FKCNYCGKSFRQRPSLVIHLRIHT [ZNF449] | 3.15 ± 0.46 | 3.35 ± 0.24 |  |  |
| TLEQEQEALVNRLWKRMDKLEAEK [CCDC6] | 4.42 ± 0.22 | 4.52 ± 0.17 |  |  |
| HAFPVVTENRGNEKEFMKGNQLIS [CLCN6] | 4.08 ± 0.078 | 4.12 ± 0.067 |  |  |
| MRQFLRGLDFLHANCIVHRDLKPE [CDK4] | 2.21 ± 0.22 | 2.23 ± 0.13 |  |  |
| GEVPVLIHGENIICEATQIIDYLE [GDAP1] | 3.55 ± 0.29 | 3.6 ± 0.3 |  |  |
